Reference: patent publication EP3873932A1

Experiments:
[1] = molecular target: human amyloidomas (all implanted human amyloid extracts); experiment: in vivo microPET
[2] = molecular target: human amyloidomas (all implanted human amyloid extracts); experiment: in vivo microPET, 4 days after tracer injection
[3] = molecular target: human amyloidomas of kappa subtypes; experiment: in vivo microPET of mice implanted with kappa subtype amyloid
[4] = molecular target: human amyloidomas of lambda subtypes; experiment: in vivo microPET of mice implanted with lambda subtype amyloid

B1: [124I]CAEL-101 (antibody, human IgG1, V domains shown)
VH: QVQLKESGPGLVAPSQSLSITCTVSGFSLSSYGVSWVRQPPGKGLEWLGVIWGDGSTNYHPNLMSRLSISKDISKSQVLFKLNSLQTDDTATYYCVTLDYWGQGTSVTVSS
VL: DVVMTQTPLSLPVSLGDQASISCRSSQSLVHRNGNTYLHWYLQKPGQSPKLLIYKVSNRFSGVPRDFSGSGSGTDFTLKISRVEAEDLGLYFCFQTTYVPNTFGGGTKLEIK
modifications: 124I radiolabel by the standard iodogen reaction (residues and chain not stated)
Binder B1 has a T:B uptake (amyloid deposit-to-background) [1] greater than 2.1, a T:B ratio (amyloid deposit-to-background, SUVmax) [2] of 2.1 to 4.2 and a T:B ratio (amyloid deposit-to-background, SUVmax) [3] of 4.1. The T:B ratio (amyloid deposit-to-background, SUVmax) [4] was 2.8.
